Assay results taken from paper doi:10.1101/835280, “Bayesian Modeling Reveals Ultrasensitivity Underlying Metabolic Compensation in the Cyanobacterial Circadian Clock” (bioRxiv, 2019).

Assays:
KaiA = target: T1, KaiA (Synechococcus elongatus PCC 7942, UniProt Q79PF6 1-284); assay: co-IP; immunoprecipitation of KaiB-FLAG from an in vitro clock reaction of purified KaiA, KaiB-FLAG and KaiC (20 mM Tris-HCl pH 8, 150 mM NaCl, 5 mM MgCl2, 0.5 mM EDTA, 10% glycerol), time course; KaiA left in the supernatant read by SDS-PAGE (SYPRO Ruby) against 1.5 uM GFP as internal standard; conditions: both partners purified
T1 construct: KaiA, circadian clock protein of Synechococcus elongatus PCC 7942; source: expressed and purified as previously described (Phong et al., 2013), anion exchange on HiTrap Q
T1 sequence (looked up): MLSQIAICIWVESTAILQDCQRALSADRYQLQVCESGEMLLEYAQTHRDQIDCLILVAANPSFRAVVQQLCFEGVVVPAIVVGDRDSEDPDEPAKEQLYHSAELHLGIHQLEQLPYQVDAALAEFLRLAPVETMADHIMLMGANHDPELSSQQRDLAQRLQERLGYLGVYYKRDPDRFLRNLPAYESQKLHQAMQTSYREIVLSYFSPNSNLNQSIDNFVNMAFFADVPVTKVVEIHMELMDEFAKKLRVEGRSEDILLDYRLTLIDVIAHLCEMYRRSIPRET

[1] = target: the molecule itself; assay: SEC; size-exclusion chromatography on a Superdex 75 16/60 prep grade column, last step of the purification of the 15N-labelled KaiA domains

B1: KaiB-FLAG (natural protein, Synechococcus elongatus PCC 7942, UniProt Q79PF5 1-102, looked up)
chain: MSPRKTYILKLYVAGNTPNSVRALKTLKNILEVEFQGVYALKVIDVLKNPQLAEEDKILATPTLAKVLPLPVRRIIGDLSDREKVLIGLDLLYGELQDSDDF
notes: KaiB, circadian clock protein of Synechococcus elongatus PCC 7942; also called FLAG-tagged KaiB; source: expressed and purified as previously described (Phong et al., 2013), anion exchange on HiTrap Q
Question: Does B1 bind (KaiA)?
Answer: binds

B2: C-terminal domain of KaiA (residues 181-284) (domain or fragment, Synechococcus elongatus PCC 7942, UniProt Q79PF6 181-284, looked up)
chain: NLPAYESQKLHQAMQTSYREIVLSYFSPNSNLNQSIDNFVNMAFFADVPVTKVVEIHMELMDEFAKKLRVEGRSEDILLDYRLTLIDVIAHLCEMYRRSIPRET
notes: KaiA, Synechococcus elongatus PCC 7942, C-terminal domain, residues 181-284; U-[15N] labelled, grown in deuterated water; also called C-terminal KaiA; C-terminal fragment of KaiA; source: E. coli BL21(DE3), M9 medium with 15N-NH4Cl in 98% D2O, purified (Ni-NTA, SEC on Superdex 75)
Question: For B2, which “stoichiometry N” value [1] is on record?
Answer: 2
